Source: patent US20260225001A1, “COMPOSITIONS AND METHODS FOR PURIFYING BIOLOGICAL FLUIDS” (North Carolina State University, priority 2023, published 2026)
Values belong to the molecule of their own block, whether it stands above or below them.

How the values were obtained:
[1] = system: Pichia pastoris HCPs; assay: Contribution of individual PichiaGuard peptides to HCP binding (flow-through, BCA, proteomics, IgG incubation); details: for coverage of HCPs: FIG. 13, by theoretical isoelectric point; for number of HCPs bound (HCP binding density): FIG. 13, proteomics; for number of HCP species bound compared with PichiaGuard: FIGS. 14A-14H
Source text: Within HCP binding, it was observed that sequences 5 through 8 display the highest capacity for HCPs, followed by 4, 3 and 1. The same sequences in order also show low to high IgG binding potential, generating a qualitative understanding of binding capacity (Y-axis) and binding selectivity (HCP/IgG).
The color spectrum diverging from blue to red indicates an increasing number of HCPs with specific molecular weight (Y-axis) and theoretical isoelectric points (X-axis) captured by each peptide.
FIGS. 14A-14H compare the total number of identified HCPs bound by individual peptides with that of the PichiaGuard ensemble.
Analysis of PichiaGuard Peptide Contributions to HCP Binding: Contributions of individual peptides comprising PichiaGuard were discerned in terms of their binding to Pichia pastoris HCPs “by-sequence”. These studies comprised of the flow-through purification of null Pichia culture fluids (no recombinant protein), subsequently purified using chromatographic columns packed with individual peptides. The fluids were purified at a 1-minute residence time and flow-through fractions were collected across time for the identification of bound and unbound HCPs (see chromatograms in FIG. 11A). These fractions were analyzed using total protein quantification assay (BCA) and compared with that of the load sample to compute HCP log-reduction value for each individual sequence (FIG. 11B, left). Simultaneously, 25 μL of each peptide was incubated with a range of IgG concentrations (0.1-30 mg/mL resin) overnight to understand their binding propensities to the competitor molecules under non-competitive conditions. Protein content in the supernatant was estimated and compared to the initial concentrations to observe IgG binding (FIG. 11B, right). All flow-through fractions were analyzed through the proteomics workflow (as described further herein) to identify unbound HCPs and overall, correlate peptide and HCP properties. Briefly, label free quantification was performed to identify HCPs within each flow-through fraction and compared to the feed sample used within the experiment. The data was first grouped as a function of time for each peptide and data filters were applied based on the abundance ratio to label bound and unbound HCPs, at different confidence levels based on the number of fractions they were identified in. Concurrently, the “Peptides” package within RStudio was utilized to calculate sequence-based properties of each HCP such as polarity, H-bonding, hydrophobicity and charge.

[2] = molecular target: K. phaffii host cell proteins (HCPs); assay: flow-through chromatography, acetate buffer, RT 1 min, up to 40 CVs
[3] = molecular target: K. phaffii host cell proteins (HCPs); assay: flow-through chromatography, acetate buffer, RT 1 min, up to 10 CVs
[4] = molecular target: K. phaffii host cell proteins (HCPs); assay: flow-through chromatography of ScFv13R4 harvest, 20 mM sodium acetate pH 5.7, RT 1 min; protein loading 3.90 g/L resin
[5] = molecular target: K. phaffii host cell proteins (HCPs); assay: static binding, Langmuir isotherm fit, HCPs treated as a single species; phosphate buffer pH 7.1-7.2; pH 7.15
[6] = molecular target: K. phaffii host cell proteins (HCPs); assay: flow-through chromatography, RT 1 min
[7] = molecular target: K. phaffii host cell proteins (HCPs); assay: flow-through chromatography of ScFv13R4 harvest, nanoLC-MS/MS
[8] = molecular target: K. phaffii host cell proteins (HCPs); assay: flow-through chromatography, acetate buffer, RT 1 min, up to 20 CVs
[9] = molecular target: K. phaffii host cell proteins (HCPs); assay: flow-through chromatography of ScFv13R4 harvest, 20 mM sodium acetate pH 5.7, RT 1 min; protein loading 7.50 g/L resin
[10] = molecular target: K. phaffii host cell proteins (HCPs); assay: flow-through chromatography of ScFv13R4 harvest, 20 mM sodium acetate pH 5.7, RT 1 min; protein loading 9.30 g/L resin
[11] = molecular target: K. phaffii host cell proteins (HCPs); assay: flow-through chromatography of ScFv13R4 harvest, 20 mM sodium acetate pH 5.7, RT 1 min; protein loading 6.30 g/L resin
[12] = molecular target: K. phaffii host cell proteins (HCPs); assay: flow-through chromatography of ScFv13R4 harvest, 20 mM sodium acetate pH 5.7, RT 1 min; protein loading 5.10 g/L resin
[13] = molecular target: K. phaffii host cell proteins (HCPs); assay: flow-through chromatography, DOE study
[14] = molecular target: K. phaffii host cell proteins (HCPs); assay: flow-through chromatography, acetate buffer, RT 1 min, up to 100 CVs
[15] = molecular target: K. phaffii host cell proteins (HCPs); assay: flow-through chromatography of ScFv13R4 harvest, 20 mM sodium acetate pH 5.7, RT 1 min; protein loading 2.10 g/L resin
[16] = molecular target: K. phaffii host cell proteins (HCPs); assay: static binding, Langmuir isotherm fit, HCPs treated as a single species; acetate buffer pH 5.7
[17] = molecular target: K. phaffii host cell proteins (HCPs); assay: static binding, Langmuir isotherm fit; phosphate buffer pH 7.1-7.2
[18] = molecular target: K. phaffii host cell proteins (HCPs); assay: flow-through chromatography of mAb harvest, acetate buffer, load up to 15 mg/mL
[19] = molecular target: K. phaffii host cell proteins (HCPs); assay: static binding, Langmuir isotherm fit; acetate buffer pH 5.7
[20] = molecular target: K. phaffii host cell proteins (HCPs); assay: flow-through chromatography of ScFv13R4 harvest, 20 mM sodium acetate pH 5.7, RT 1 min; protein loading 14.40 g/L resin
[21] = molecular target: K. phaffii host cell proteins (HCPs); assay: flow-through chromatography, DOE study, phosphate buffer
[22] = molecular target: K. phaffii host cell proteins (HCPs); assay: flow-through chromatography, DOE study, acetate buffer
[23] = molecular target: K. phaffii host cell proteins (HCPs); assay: flow-through chromatography, 30th CV mark
[24] = molecular target: K. phaffii host cell proteins (HCPs); assay: flow-through affinity chromatography
[25] = molecular target: K. phaffii host cell proteins (HCPs); assay: flow-through chromatography, around the 30th CV
[26] = molecular target: K. phaffii host cell proteins (HCPs); assay: flow-through purification of scFv perfusate, Pichia pastoris HCP ELISA; 150 CV load

coverage of HCPs [1]: broad coverage of HCPs with varying pI
number of HCPs bound (HCP binding density) [1]: High HCP binding densities
number of HCP species bound compared with PichiaGuard [1]: binding most species
Molecule: YHKH [Peptide 1]

number of HCPs bound (HCP binding density) [1]: least number of HCPs
Molecule: RYWV [Peptide 8]

coverage of HCPs [1]: broad coverage of HCPs with varying pI
number of HCPs bound (HCP binding density) [1]: High HCP binding densities
number of HCP species bound compared with PichiaGuard [1]: binding most species
Molecule: EWAK [Peptide 4]

coverage of HCPs [1]: broad coverage of HCPs with varying pI
Molecule: QEKK [Peptide 5]

number of HCP species bound compared with PichiaGuard [1]: binding most species
Molecule: WYKK [Peptide 6]

coverage of HCPs [1]: broad coverage of HCPs with varying pI
number of HCP species bound compared with PichiaGuard [1]: binding most species
Molecule: VWHH [Peptide 7]

cumulative HCP LRV [2]: 0.45 to 0.55 LRV
cumulative HCP LRV [3]: 1 to 1.5 LRV
Molecule: CHO LigaGuard™ resin

selectivity (HCP vs IgG binding) ([1]; FIG. 14I, non-competitive conditions): poor selectivity
Molecule: RYWK [Peptide 2]

cumulative HCP LRV [4]: 2.55 LRV
Kd [5]: 30 µM
fold change of HCP clearance activity, phosphate buffer against acetate buffer [6]: 10 fold lower
% of HCPs completely removed [7]: > 84%
% of HCPs partially cleared [7]: 15%
cumulative HCP LRV [8]: 1.5 to 2 LRV
cumulative HCP LRV [9]: 1.34 LRV
cumulative HCP LRV [10]: 1.14 LRV
cumulative HCP LRV [11]: 1.55 LRV
cumulative HCP LRV [12]: 1.92 LRV
HCP LRV [13]: 3 LRV
cumulative HCP LRV [14]: 1.3 LRV
cumulative HCP LRV [15]: 3 LRV
Kd [16]: 17.5 µM
Qmax (maximum binding capacity) (mg HCP per mL resin) [17]: 18.3
cumulative HCP LRV [3]: > 2 LRV
overall HCP LRV [18]: 1.15 LRV
Qmax (maximum binding capacity) (mg HCP per mL resin) [19]: 25.4
cumulative HCP LRV [20]: 1.01 LRV
B1: PichiaGuard-TP650M resin (peptide)
peptide 1: YHKH
peptide 2: RYWK
peptide 3: RWYQ
peptide 4: EWAK
peptide 5: QEKK
peptide 6: WYKK
peptide 7: VWHH
peptide 8: RYWV
modifications: bound to Toyopearl AF-Amino-650M resin

HCP LRV [21]: 0.8 to 1 LRV
HCP LRV [22]: 0.7 to 0.9 LRV
B2: PichiaGuard-TP50F resin (peptide)
peptide 1: YHKH
peptide 2: RYWK
peptide 3: RWYQ
peptide 4: EWAK
peptide 5: QEKK
peptide 6: WYKK
peptide 7: VWHH
peptide 8: RYWV
modifications: bound to aminated Toyopearl HW-50F resin

load at saturation as % of Qmax [23]: 75 % of Qmax
load ratio at saturation (g of HCPs per L of resin) [23]: 18
% reduction of HCPs and hcDNA [24]: < 99%
cumulative LRV at plateau [25]: 1 LRV
fractional LRV [25]: < 0.5 LRV
HCP removal (logs) [26]: 1.7 logs
B3: PichiaGuard (peptide)
peptide 1: YHKH
peptide 2: RYWK
peptide 3: RWYQ
peptide 4: EWAK
peptide 5: QEKK
peptide 6: WYKK
peptide 7: VWHH
peptide 8: RYWV
modifications: bound to a chromatographic resin; which Toyopearl base is not said at these places
